The target in test [1] is T1, NFS1-ISD11 complex (SD), purified, His tag removed (human, UniProt Q9Y697 56-457; Q9HD34 1-91). In words: BLI.
In test [2] the target is T1, NFS1-ISD11 complex (SD), purified, His …. In words: BLI. The source holds these as a separate data set.

Among the data in doi:10.1101/262477 (bioRxiv, 2018) are Kd values, retold here.

Where two headings read alike, the source gives them in different places.

T1 sequence (Q9Y697 56-457, chain 1 of 2): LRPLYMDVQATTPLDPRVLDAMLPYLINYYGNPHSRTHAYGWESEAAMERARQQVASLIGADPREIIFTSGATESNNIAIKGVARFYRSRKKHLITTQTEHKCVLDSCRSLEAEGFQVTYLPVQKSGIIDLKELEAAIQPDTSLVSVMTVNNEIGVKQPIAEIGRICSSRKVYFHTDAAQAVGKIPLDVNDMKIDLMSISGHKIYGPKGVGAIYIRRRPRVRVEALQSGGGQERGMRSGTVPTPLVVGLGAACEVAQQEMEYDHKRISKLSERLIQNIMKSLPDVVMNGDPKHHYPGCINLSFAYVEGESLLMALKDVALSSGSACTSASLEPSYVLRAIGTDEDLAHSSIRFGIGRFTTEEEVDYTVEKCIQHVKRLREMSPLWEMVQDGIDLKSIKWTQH
T1 sequence (Q9HD34 whole entry, chain 2 of 2): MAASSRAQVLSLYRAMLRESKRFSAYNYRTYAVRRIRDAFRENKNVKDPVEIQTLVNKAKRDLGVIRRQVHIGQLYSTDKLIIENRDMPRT

B1: biotinylated human ISCU (Δ1-34), wild type (natural protein, UniProt Q9H1K1 35-167, looked up)
chain: YHKKVVDHYENPRNVGSLDKTSKNVGTGLVGAPACGDVMKLQIQVDEKGKIVDARFKTFGCGSAIASSSLATEWVKGKTVEEALTIKNTDIAKELCLPPVKLHCSMLAEDAIKAALADYKLKQEPKKGEAEKK
modifications: biotin (site not stated)
Take B1: the Kd was 87.8 ± 7 nM in test [1] and 160 ± 26 nM in test [2].
